FireProtDB

Conditions: whole UniProt chain shown; for Tm / unfolding enthalpy (calorimetric): Thermal
[1] = Manduca sexta, pH 7, 25 °C, GdnHCl, CD, Potassium phosphate 50 mM, reversible: yes
[2] = Momordica charantia, pH 7.5, 25 °C, GdnHCl, fluorescence, Tris-HCl 10 mM, NaCl 200 mM
[3] = Mus musculus, pH 2, DSC, Potassium phosphate 40 mM, reversible: yes
[4] = Mus musculus, pH 2.7, DSC, Potassium phosphate 40 mM, reversible: yes
[5] = Mus musculus, pH 7, DSC, Potassium phosphate 40 mM, reversible: yes
[6] = Mus musculus, pH 4, 25 °C, GdnHCl, CD, Sodium acetate 10 mM, reversible: yes
[7] = Mus musculus, pH 4, 25 °C, Urea, CD, Sodium acetate 10 mM, reversible: yes
[8] = Mus musculus, pH 7.4, 25 °C, Urea, CD, Tris-HCl 10 mM, reversible: yes
[9] = Niallia circulans, pH 6, DSC, HEPES 100 mM, reversible: No
[10] = Niallia circulans, pH 8.5, DSC, HEPES 100 mM, reversible: No
[11] = Niallia circulans, pH 10, DSC, CHESS 100 mM, reversible: No

B1: Apolipophorin-3 wild type, P13276 (protein)
chain: MAAKFVVVLAACVALSHSAMVRRDAPAGGNAFEEMEKHAKEFQKTFSEQFNSLVNSKNTQDFNKALKDGSDSVLQQLSAFSSSLQGAISDANGKAKEALEQARQNVEKTAEELRKAHPDVEKEANAFKDKLQAAVQTTVQESQKLAKEVASNMEETNKKLAPKIKQAYDDFVKHAEEVQKKLHEAATKQ
denaturant m value [1]: 3.65 kcal/mol/M | denaturant midpoint (higher = more stable) [1]: 0.36 M | unfolding free energy [1]: 1.29 kcal/mol | Tm (Manduca sexta, pH 7, CD, Potassium phosphate 50 mM, reversible: yes): 52 °C

B2: Ribonuclease MC wild type, P23540 (protein)
chain: FDSFWFVQQWPPAVCSFQKSGSCPGSGLRTFTIHGLWPQGSGTSLTNCPQGSPFDITKISHLQSQLNTLWPNVLRANNQQFWSHEWTKHGTCSESTFNQAAYFKLAVDMRNNYDIIGALRPHAAGPNGRTKSRQAIKGFLKAKFGKFPGLRCRTDPQTKVSYLVQVVACFAQDGSTLIDCTRDTCGANFIF
denaturant midpoint (higher = more stable) [2]: 2.57 M | unfolding free energy [2]: 13.2 kcal/mol | Tm (Momordica charantia, pH 7.5, CD, Tris-HCl 10 mM, NaCl 200 mM): 64.4 °C

B3: Ig gamma-1 chain C region secreted form wild type, P01868 (protein)
chain: AKTTPPSVYPLAPGSAAQTNSMVTLGCLVKGYFPEPVTVTWNSGSLSSGVHTFPAVLQSDLYTLSSSVTVPSSPRPSETVTCNVAHPASSTKVDKKIVPRDCGCKPCICTVPEVSSVFIFPPKPKDVLTITLTPKVTCVVVDISKDDPEVQFSWFVDDVEVHTAQTQPREEQFNSTFRSVSELPIMHQDWLNGKEFKCRVNSAAFPAPIEKTISKTKGRPKAPQVYTIPPPKEQMAKDKVSLTCMITDFFPEDITVEWQWNGQPAENYKNTQPIMNTNGSYFVYSKLNVQKSNWEAGNTFTCSVLHEGLHNHHTEKSLSHSPGK
Tm [3]: 69.3 °C | unfolding enthalpy (calorimetric) [3]: 84 kcal/mol | Tm [4]: 69.5 °C | unfolding enthalpy (calorimetric) [4]: 86.6 kcal/mol | Tm [5]: 70.2 °C | unfolding enthalpy (calorimetric) [5]: 174 kcal/mol

B4: Interleukin-6 wild type, P08505 (protein)
chain: MKFLSARDFHPVAFLGLMLVTTTAFPTSQVRRGDFTEDTTPNRPVYTTSQVGGLITHVLWEIVEMRKELCNGNSDCMNNDDALAENNLKLPEIQRNDGCYQTGYNQEICLLKISSGLLEYHSYLEYMKNNLKDNKKDKARVLQRDTETLIHIFNQEVKDLHKIVLPTPISNALLTDKLESQKEWLRTKTIQFILKSLEEFLKVTLRSTRQT
denaturant m value [6]: 0.7 kcal/mol/M | denaturant midpoint (higher = more stable) [6]: 2.7 M | unfolding free energy [6]: 1.8 kcal/mol | denaturant m value [7]: 1.9 kcal/mol/M | denaturant midpoint (higher = more stable) [7]: 3.6 M | unfolding free energy [7]: 6.9 kcal/mol | unfolding free energy (Mus musculus, pH 4, 25 °C, Urea, CD, Sodium acetate 10 mM): 6.8 kcal/mol | unfolding free energy (Mus musculus, pH 4, 25 °C, Urea, Fluorescence, sodium acetate 0.5 M): 6 kcal/mol | denaturant m value [8]: 0.7 kcal/mol/M | denaturant midpoint (higher = more stable) [8]: 4.8 M | unfolding free energy [8]: 3.4 kcal/mol

B5: cAMP-dependent protein kinase type I-beta regulatory subunit wild type, P12849 (protein)
chain: MASPSCFHSEDEDSLKGCEMYVQKHGIQQVLKECIVHLCVAKPDRPLRFLREHFEKLEKEENRQILARQKSNSQCDSHDEEISPTPPNPVVKARRRRGGVSAEVYTEEDAVSYVRKVIPKDYKTMTALAKAISKNVLFSHLDDNERSDIFDAMFPVTHIGGETVIQQGNEGDNFYVIDQGEVDVYVNGEWVTNISEGGSFGELALIYGTPRAATVKAKTDLKLWGIDRDSYRRILMGSTLRKRKMYEEFLSKVSILESLEKWERLTVADALEPVQFEDGEKIVVQGEPGDDFYIITEGTASVLQRRSPNEEYVEVGRLGPSDYFGEIALLLNRPRAATVVARGPLKCVKLDRPRFERVLGPCSEILKRNIQRYNSFISLTV
unfolding free energy (Mus musculus, pH 7, 23 °C, GdnHCl, Fluorescence, MOPS 5 mM, KCl 100 mM, reversible: yes): 7.2 kcal/mol | unfolding free energy (Mus musculus, pH 7, 23 °C, Urea, Fluorescence, MOPS 5 mM, KCl 100 mM, reversible: yes): 7 kcal/mol

B6: Phosphoserine aminotransferase wild type, Q59196 (protein)
chain: MSKRAYNFNAGPAALPLEVLERAQAEFVDYQHTGMSIMEMSHRGAVYEAVHNEAQARLLALLGNPTGYKVLFIQGGASTQFAMIPMNFLKEGQTANYVMTGSWASKALKEAKLIGDTHVAASSEASNYMTLPKLQEIQLQDNAAYLHLTSNETIEGAQFKAFPDTGSVPLIGDMSSDILSRPFDLNQFGLVYAGAQKNLGPSGVTVVIVREDLVAESPKHLPTMLRYDTYVKNNSLYNTPPSFGIYMVNEVLKWIEERGGLEGVQQANRKKASLIYDAIDQSGGFYRGCVDVDSRSDMNITFRLASEELEKEFVKASEQEGFVGLKGHRSVGGLRASIYNAVPYESCEALVQFMEHFKRSRG
Tm [9]: 71 °C | unfolding enthalpy (calorimetric) [9]: 288 kcal/mol | Tm [10]: 58.4 °C | unfolding enthalpy (calorimetric) [10]: 121 kcal/mol | Tm [11]: 58 °C | unfolding enthalpy (calorimetric) [11]: 124 kcal/mol
